# Experimental data: the RNAGym collection of RNA variant scans (doi:10.7554/elife.80360)
# B1: CPEB3 Ribozyme (parent)
# chain: GGGGGCCACAGCAGAAGCGUUCACGUCGCGGCCCCUGUCAGAUUCUGGUGAAUCUGCGAAUUCUGCUGU
# Variants of: B1
# Test: self-cleavage, relative activity (ratio to wild type); higher = more cleavage; co-transcriptional
row,Variant,self-cleavage
1,GGGGGUCACAGCAGAAGCGUUCACGUCGCGGCCCCUGUCAGGUUCUGGUGAAUCUGCGAAUUCUGCUGU [C6U A42G],0.951
2,GGGGGUCACAGCAGUAGCGUUCACGUCGCGGCCCCUGUCAGAUUCUGGUGAAUCUGCGAAUUCUGCUGU [C6U A15U],0.698
3,GGGGGGCACAGCAGAAGCGUUCACGUCGCGGCCCCUGUCAGAUUCUGGUGAAUCUGCGAAUUCCGCUGU [C6G U64C],0.166
4,GGGGGGCACAGCAGAAGCGUUCACGUCGCGGCCCCUGUCAGAUUCUGGUGAAUCUGCGAAUUCGGCUGU [C6G U64G],0.276
5,GGGGGUUACAGCAGAAGCGUUCACGUCGCGGCCCCUGUCAGAUUCUGGUGAAUCUGCGAAUUCUGCUGU [C6U C7U],0.86
6,GGGGGUCACAGCAGAAGCGUUCACGUCGCGGCCCCUGUAAGAUUCUGGUGAAUCUGCGAAUUCUGCUGU [C6U C39A],0.852
7,GGGGGUCACAGCAGAAGCGUUCACGUCGCGGCCCGUGUCAGAUUCUGGUGAAUCUGCGAAUUCUGCUGU [C6U C35G],0.2
8,GGGGGUCACAGCAGAAGCGUUCACGUCGCGGCCCUUGUCAGAUUCUGGUGAAUCUGCGAAUUCUGCUGU [C6U C35U],0.78
9,GGGGGUCACGGCAGAAGCGUUCACGUCGCGGCCCCUGUCAGAUUCUGGUGAAUCUGCGAAUUCUGCUGU [C6U A10G],0.908
10,GGGGGUCACAGCAGAAGCGUUCACGUCGCGGCACCUGUCAGAUUCUGGUGAAUCUGCGAAUUCUGCUGU [C6U C33A],0.257
11,GGGGGUCACAGCAGAAGCGUUCACGUCGCGGCGCCUGUCAGAUUCUGGUGAAUCUGCGAAUUCUGCUGU [C6U C33G],0.145
12,GGGGGUCACAGCAGAAGCGUUCACAUCGCGGCCCCUGUCAGAUUCUGGUGAAUCUGCGAAUUCUGCUGU [C6U G25A],0.141
13,GGGGGUCACAGCAGAAGCGUUCACGUCGUGGCCCCUGUCAGAUUCUGGUGAAUCUGCGAAUUCUGCUGU [C6U C29U],0.405
14,GGGGGUCACAGCAGAAGCGUUCACGUCGAGGCCCCUGUCAGAUUCUGGUGAAUCUGCGAAUUCUGCUGU [C6U C29A],0.493
15,GGGGGUCACAGCAGAAGCGUUCACGUUGCGGCCCCUGUCAGAUUCUGGUGAAUCUGCGAAUUCUGCUGU [C6U C27U],0.256
16,GGGGGUCACAGCAGAAGCGUUCGCGUCGCGGCCCCUGUCAGAUUCUGGUGAAUCUGCGAAUUCUGCUGU [C6U A23G],1.03
17,GGGGGGCACAGCAGAAGCGUUCACGUCGCGGCCCCUGUCAGAUUCUGGUGAAUCUGCGAAUUCUGCAGU [C6G U67A],0.325
18,GGGGGUCACAGCUGAAGCGUUCACGUCGCGGCCCCUGUCAGAUUCUGGUGAAUCUGCGAAUUCUGCUGU [C6U A13U],0.867
19,GGGGGUCACAGCGGAAGCGUUCACGUCGCGGCCCCUGUCAGAUUCUGGUGAAUCUGCGAAUUCUGCUGU [C6U A13G],0.987
20,GGGGGUCACAGCAGAAGCGUUCACGUCGCGGCCCCUGUCAGAUUCUGGUGAGUCUGCGAAUUCUGCUGU [C6U A52G],0.997

row,Variant,self-cleavage
1,GGGGGUCACAGCAGAAGCGUUUACGUCGCGGCCCCUGUCAGAUUCUGGUGAAUCUGCGAAUUCUGCUGU [C6U C22U],0.198
2,GGGGGUCACAGCAGAAGCGUUAACGUCGCGGCCCCUGUCAGAUUCUGGUGAAUCUGCGAAUUCUGCUGU [C6U C22A],0.172
3,GGGGGUCACAGCAGAAGCGUUCACGUCGCGGCCCCUGUCAGAUUCUGGUGGAUCUGCGAAUUCUGCUGU [C6U A51G],1.01
4,GGGGGUCACAGCAGAAGCGUUCACGUCGCGGCCCCUGUCAGAUUCUGGUGUAUCUGCGAAUUCUGCUGU [C6U A51U],0.986
5,GGGGGUCACAGCAGAAGCGUUCACGUCGCGGCCGCUGUCAGAUUCUGGUGAAUCUGCGAAUUCUGCUGU [C6U C34G],0.188
6,GGGGGGCACAGCAGAAGCGUUCACGUCGCGGCCCCUGUCAGAUUCUGGUGAAUCUGCGAAGUCUGCUGU [C6G U61G],0.209
7,GGGGGUCACAGCAGAAGCGUUCACGUCGCGGCCCCUGUCAGAUUCUGGUGAAUCUGCGAAUUAUGCUGU [C6U C63A],0.806
8,GGGGGUCACAGCAGAAGCGUUCACGUCGCGGACCCUGUCAGAUUCUGGUGAAUCUGCGAAUUCUGCUGU [C6U C32A],0.177
9,GGGGGUCACAGCAGAAUCGUUCACGUCGCGGCCCCUGUCAGAUUCUGGUGAAUCUGCGAAUUCUGCUGU [C6U G17U],0.209
10,GGGGGUCACAGCAGAAGCGUUCACGUCGCGGCCCCUGUCAGAUUCUGGUGAAUUUGCGAAUUCUGCUGU [C6U C54U],1.03
11,GGGGGUCACAGCAGAAGCGUUCAGGUCGCGGCCCCUGUCAGAUUCUGGUGAAUCUGCGAAUUCUGCUGU [C6U C24G],0.345
12,GGGGGUCACAGCAGAAGCGUUCACGUCGCGGCCCCUGUCGGAUUCUGGUGAAUCUGCGAAUUCUGCUGU [C6U A40G],0.999
13,GGGGGUCACAGCAUAAGCGUUCACGUCGCGGCCCCUGUCAGAUUCUGGUGAAUCUGCGAAUUCUGCUGU [C6U G14U],0.616
14,GGGGGUCACAGCACAAGCGUUCACGUCGCGGCCCCUGUCAGAUUCUGGUGAAUCUGCGAAUUCUGCUGU [C6U G14C],0.458
15,GGGGGGCACAGCAGAAGCGUUCACGUCGCGGCCCCUGUCAGAUUCUGGUGAAUCUGCGAAUCCUGCUGU [C6G U62C],0.0999
16,GGGGGUCACAGCAGAAGCUUUCACGUCGCGGCCCCUGUCAGAUUCUGGUGAAUCUGCGAAUUCUGCUGU [C6U G19U],0.298
17,GGGGGUCACAGCAGAAGUGUUCACGUCGCGGCCCCUGUCAGAUUCUGGUGAAUCUGCGAAUUCUGCUGU [C6U C18U],0.727
18,GGGGGUCACAGCAGAAGGGUUCACGUCGCGGCCCCUGUCAGAUUCUGGUGAAUCUGCGAAUUCUGCUGU [C6U C18G],0.0786
19,GGGGGUCACAACAGAAGCGUUCACGUCGCGGCCCCUGUCAGAUUCUGGUGAAUCUGCGAAUUCUGCUGU [C6U G11A],0.861
